The target in this assay is angiopoietin-like 6 (ANGPTL6) (UniProt Q8NI99). Briefly: SPR. On the technique in general: Surface plasmon resonance follows binding to a sensor surface in real time, without labels.

Consider one substance from article doi:10.1101/2025.01.10.632391.

Sequence of UniProt Q8NI99 (Q8NI99 21-470): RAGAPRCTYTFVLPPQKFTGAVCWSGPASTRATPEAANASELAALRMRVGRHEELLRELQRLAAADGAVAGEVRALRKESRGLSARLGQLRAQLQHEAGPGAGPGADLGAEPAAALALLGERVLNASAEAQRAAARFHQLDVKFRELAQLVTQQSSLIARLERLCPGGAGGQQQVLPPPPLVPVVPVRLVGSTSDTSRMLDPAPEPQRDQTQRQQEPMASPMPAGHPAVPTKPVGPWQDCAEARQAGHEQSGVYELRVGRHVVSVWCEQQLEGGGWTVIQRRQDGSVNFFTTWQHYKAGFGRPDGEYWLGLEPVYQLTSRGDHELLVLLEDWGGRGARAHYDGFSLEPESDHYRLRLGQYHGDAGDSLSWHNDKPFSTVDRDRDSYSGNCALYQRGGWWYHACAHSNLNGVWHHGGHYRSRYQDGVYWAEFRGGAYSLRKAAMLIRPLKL

“αVβ5 integrin (from UniProt P06756 31-1048; P18084 24-719) (complex)” came in with a Kd of 13 nM and a koff of 0.0012 s⁻¹.

As a reminder, the Kd is the constant that tells how readily two partners part at equilibrium. Read a high Kd as a looser complex. Usually koff stands for the first-order rate constant of dissociation.
